A value given as a limit tells only on which side of the number the result lay.

1 sequence from PMC9071432 can be followed below.

For the data set, the target named is sg-Tu-Ts_dCC (Escherichia coli) (UniProt P0A6P1+P0CE48). The data set can be described thus: EMSA. The note with it: 10 mM Mg2+; printed >>30; none (in vitro transcript); EMSA: 50 mM Tris-Cl pH 7.4, 10 mM MgCl2, 50 mM NaCl, 10 mM b-ME, 10% glycerol, 37C 10 min, gel at ~25C; pull-down: Tu-GTP preincubated in 50 mM Tris-Cl pH 7.0 …. On the technique in general: In EMSA bound probe runs differently from free probe, usually more slowly.
Chain of UniProt P0A6P1 (P0A6P1 whole entry, chain 1 of 2): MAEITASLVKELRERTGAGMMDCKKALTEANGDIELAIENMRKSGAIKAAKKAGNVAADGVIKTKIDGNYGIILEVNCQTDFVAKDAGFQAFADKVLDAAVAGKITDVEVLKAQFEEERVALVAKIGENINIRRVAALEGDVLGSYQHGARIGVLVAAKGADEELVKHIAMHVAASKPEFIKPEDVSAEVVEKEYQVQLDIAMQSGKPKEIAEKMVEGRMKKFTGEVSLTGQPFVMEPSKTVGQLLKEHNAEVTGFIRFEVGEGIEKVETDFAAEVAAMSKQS
Chain of UniProt P0A6P1 (P0CE48 whole entry, chain 2 of 2): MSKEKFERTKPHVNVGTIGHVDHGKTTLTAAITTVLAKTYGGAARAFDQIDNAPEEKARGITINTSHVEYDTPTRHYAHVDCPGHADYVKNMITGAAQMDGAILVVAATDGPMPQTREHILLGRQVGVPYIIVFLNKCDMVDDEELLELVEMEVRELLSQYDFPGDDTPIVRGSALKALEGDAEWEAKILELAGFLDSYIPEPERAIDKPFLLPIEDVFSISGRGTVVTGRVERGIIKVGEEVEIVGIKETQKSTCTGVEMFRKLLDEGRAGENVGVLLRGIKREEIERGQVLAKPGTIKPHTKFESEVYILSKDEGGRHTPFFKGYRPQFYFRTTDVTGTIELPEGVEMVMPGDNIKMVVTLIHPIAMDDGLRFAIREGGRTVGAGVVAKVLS

As a reminder, the Kd is the constant that tells how readily two partners part at equilibrium. On to “UGGGGUAUCGCCAAGCGGUAAGGCACCGGAUUCUGAUUCCGGCAUUCCGAGGUUCGAAUCCUCGUACCCCAGCCA [tRNAGln transcript (U1-A72, wt), uncharged]”, for which the Kd is over 30 µM.
